Assay results taken from US20080058636A1, “METHODS OF MYOCARDIAL IMAGING” (Epix Pharmaceuticals, Inc., priority 2005, published 2008).
Bridge positions count the residues as written; N and C are the ends. Square brackets hold non-standard residues; d marks the D form. Ends that are not written are not given here. bb‑DTPA gadolinium tetramer = not defined here

Tests used:
[1] = molecular target: T1, dried human collagen type I (Homo sapiens, UniProt P02452+P08123); experiment: Dried collagen assay (DCA), human collagen; assay type: binding; settings: 5 μM peptide in PBS pH 7.4, 2 hours at room temperature; percent bound
T1 construct: Acid soluble human collagen extracted from placenta; purchased Sigma C7774; host or cells: human placenta (tissue extract)
Procedure: Acid soluble human collagen extracted from placenta (Sigma, cat# C7774, lot# 083K375) is dissolved in 15 mM HCl (3.5 mg/ml) by vortexing and gently shaking for 3-4 hours at 4° C. The acid soluble collagen is dissolved against PBS, pH 7.4 (three buffer exchanges are used). […] Percent gelation (fibril formation) of the collagen is determined by incubating 10 μM collagen (3.3 mg/ml) at 37° C. for 6 hours.

[2] = molecular target: T2, dried rat collagen type I (Rattus norvegicus, UniProt P02454+P02466); experiment: Dried collagen assay (DCA), rat collagen; assay type: binding; settings: for % Collagen Binding, Dried Rat: 5 μM peptide in PBS pH 7.4, 2 hours at room temperature, percent bound
T2 construct: Rat collagen (acid soluble, type I, rat tail, Upstate USA, Inc, cat# 08-115); purchased Upstate USA, Inc 08-115; host or cells: rat tail (tissue extract)
Procedure: Peptides identified using the phage-display protocol were screened using dried collagen assays (DCA) as described in A.-D. below.
For the final assay, a 1:10 volume of 10×PBS (100 mM NaH2PO4, 1.5 M NaCl pH 7.4) is added to the collagen solution (final 1×PBS) and incubated at 37° C. for 2 hours.
An additional 90 μL is reserved in a HPLC glass vial as a measure of the total concentration.

[3] = system: perfused Langendorff rat heart; experiment: Washout kinetics from perfused Langendorff rat heart; settings: for fraction of compound present at 0 minutes post infusion that remains at 10 minutes: 10 minutes after infusion
Procedure: A K-H buffer filled 20 Gauge needle was inserted into the apex of the heart penetrating into the bottom of the chamber. This was attached to a pressure transducer used to record and monitor heart function. Perfusion pressure (60 mmHg) was monitored using a second transducer. The heart was perfused at a constant flow rate of 10-12 mL/min with 37° C. […] The heart was paced at 300 beats/min.
A Langendorff rat heart preparation was perfused with K-H buffer at a rate of 10-12 mL/min. […] After the infusion was finished, the heart was either removed or perfusion was allowed to continue for an additional 10 minutes and then the heart was removed. The perfusion buffer was not recirculated through the heart. After removal of any connective tissue, the heart was opened, fluid in the chambers drained, and the interior blotted dry with filter paper. […] An aliquot of the K-H buffer was also weighed and counted. Concentration estimates were decay corrected. Studies were performed at least in duplicate.

[4] = system: perfused Langendorff rat heart; experiment: Equilibrium binding to perfused Langendorff rat heart; settings: for heart uptake relative to GdDTPA: perfused rat heart; for Heart: 10 minutes recirculating perfusion
Procedure: After deep anesthesia with pentobarbital (80 mg/kg ip), the chest cavity of a male Sprague Dawley rat (300 g) was opened, retracted and the heart was removed immediately and placed in an ice-cold normal Krebs-Henseleit (K-H) solution (NaCl, 118 mM; KCl, 4.7 mM; CaCl2, 2.5 mM; MgSO4, 1.2 mM; KH2PO4, 1.2 mM; NaHCO3, 25 mM; glucose, 5.5 mM). A K-H buffer filled 20 Gauge needle was inserted into the apex of the heart penetrating into the bottom of the chamber. This was attached to a pressure transducer used to record and monitor heart function. Perfusion pressure (60 mmHg) was monitored using a second transducer. The heart was perfused at a constant flow rate of 10-12 mL/min with 37° C. Krebs-Henseleit buffer saturated with a mixture of 95% O2 and 5% CO2 gas. The heart was paced at 300 beats/min.
Two peptide test articles, a high collagen binding peptide (SEQ ID NO: 144) and a low collagen binding peptide (SEQ ID NO: 173), are compared to GdDTPA. The appropriate test article was added to the K-H buffer solution to a total concentration of either 3 or 30 μM. Also added to the K-H buffer was a radiotracer analog of each peptide or GdDTPA. For the peptides, the radiotracer was an aliquot of the appropriate I-125 labeled peptide derivative (see Example 5 for protocol). For GdDTPA, the tracer added was Tc-99m labeled DTPA. The amount of radioactivity added to the buffer solution was 1-5 μCi.
The heart was perfused for a period of 10 minutes and the perfusion solution was recycled through the heart. The total volume of K-H buffer used was 50-60 mL. After 10 min, the heart was removed from the apparatus and any connective tissue was removed. The heart was opened, fluid in the chambers drained, and the interior blotted dry with filter paper. The heart was then weighed and the radioactivity in the heart measured with a Packard Cobra 5003 Gamma Scintillation counter. An aliquot of the K-H buffer was also weighed and counted. Studies were performed at least in duplicate.
The dual peptide gadolinium tetramer (Compound ID 803) was compared to GdDTPA. Compound ID 803 and GdDTPA were added to the K-H buffer solution to a total concentration of 3 μM. Also added to the K-H buffer was a radiotracer analog of Compound ID 803 or GdDTPA. For Compound ID 803, the radiotracer was an aliquot of the In-111 labeled compound. For GdDTPA, the tracer added was Tc-99m labeled DTPA. The amount of radioactivity added to the buffer solution was 1-5 μCi.

[5] = molecular target: T3, rat type I collagen gel (Rattus norvegicus, UniProt P02454+P02466); experiment: MR phantom imaging of collagen gel samples at 4.7 T
T3 construct: Rat collagen (acid soluble, type I, rat tail, Upstate USA, Inc, cat# 08-115); purchased Upstate USA, Inc 08-115; host or cells: rat tail (tissue extract)
Procedure: (§1) Samples: • 1. […] Sample prepared as sample 2, but centrifuged to separate insoluble rat collagen gel • 5. Sample prepared as sample 3, but centrifuged to separate insoluble human collagen gel • 6. 27 μM GdDTPA solution in PBS, pH 7.4 • 7. 27 μM GdDTPA in a solution of 5.0 μM rat type I collagen in 10 mM phosphate buffer, pH 5 incubated at 37° C. overnight to form a gel • 8. Sample prepared as in sample 7, but centrifuged to separate insoluble rat collagen gel • 9. Homogeneous gel of 5 μM rat collagen • 10. Homogeneous gel of 7.5 μM human collagen
Samples for imaging were placed in glass tubes that were in turn placed in tubes containing water. Images were acquired at 4.7 T on a Bruker Biospec Imager using a Multi-Slice Multi-Echo Method with variable Relaxation Delay (MSMEVTR) experiment. The spin echo time and the relaxation delay were set to TE=11.2 ms and TR=500 ms, respectively with a flip angle of 30°. Images were acquired of sample 2, sample 4, sample 7, and sample 8. […] Sample 7 and 8 show uniform signal intensity.

[6] = MR phantom study: T1 of samples at 0.47 Tesla; assay type: physicochemical
Procedure: Acid soluble human collagen type I extracted from placenta (Sigma, cat# C7774, lot#083K375) was dissolved in 15 mM HCl (3.5 mg/mL) by vortexing and gently shaking for 3-4 hours at 4° C. The acid soluble collagen was dialyzed against PBS (pH 7.4). Protein concentration was determined by the BCA method (Pierce, Cat#23225) using bovine collagen (Vitrogen, cat#FXP-019) as a reference standard. The final collagen concentration for the stock solution was 9 μM.
Rat collagen (acid soluble, type I, rat tail, Upstate USA, Inc. Cat# 08-115) was dialyzed against 10 mM Phosphate buffer (NaH2PO4, pH 4.2). The final collagen concentration for the stock solution was approx. 12 μM.
as §1
T1 was determined for samples 1, 2, 3, 6, 7, 9, 10 at 0.47 Tesla using a Bruker NMS120 minispec NMR analyzer operating at 37° C.

[7] = Biodistribution (heart, blood) after tail vein injection, radiotracer counting; assay type: in vivo, Sprague-Dawley rats; settings: for Blood (% ID/g) / Heart (% ID/g): rat, 0.5 μmol/kg tail vein
Procedure: Concentration estimates were decay corrected. Studies were performed at least in duplicate.

T1 sequence (P02452 162-1218 limits assumed): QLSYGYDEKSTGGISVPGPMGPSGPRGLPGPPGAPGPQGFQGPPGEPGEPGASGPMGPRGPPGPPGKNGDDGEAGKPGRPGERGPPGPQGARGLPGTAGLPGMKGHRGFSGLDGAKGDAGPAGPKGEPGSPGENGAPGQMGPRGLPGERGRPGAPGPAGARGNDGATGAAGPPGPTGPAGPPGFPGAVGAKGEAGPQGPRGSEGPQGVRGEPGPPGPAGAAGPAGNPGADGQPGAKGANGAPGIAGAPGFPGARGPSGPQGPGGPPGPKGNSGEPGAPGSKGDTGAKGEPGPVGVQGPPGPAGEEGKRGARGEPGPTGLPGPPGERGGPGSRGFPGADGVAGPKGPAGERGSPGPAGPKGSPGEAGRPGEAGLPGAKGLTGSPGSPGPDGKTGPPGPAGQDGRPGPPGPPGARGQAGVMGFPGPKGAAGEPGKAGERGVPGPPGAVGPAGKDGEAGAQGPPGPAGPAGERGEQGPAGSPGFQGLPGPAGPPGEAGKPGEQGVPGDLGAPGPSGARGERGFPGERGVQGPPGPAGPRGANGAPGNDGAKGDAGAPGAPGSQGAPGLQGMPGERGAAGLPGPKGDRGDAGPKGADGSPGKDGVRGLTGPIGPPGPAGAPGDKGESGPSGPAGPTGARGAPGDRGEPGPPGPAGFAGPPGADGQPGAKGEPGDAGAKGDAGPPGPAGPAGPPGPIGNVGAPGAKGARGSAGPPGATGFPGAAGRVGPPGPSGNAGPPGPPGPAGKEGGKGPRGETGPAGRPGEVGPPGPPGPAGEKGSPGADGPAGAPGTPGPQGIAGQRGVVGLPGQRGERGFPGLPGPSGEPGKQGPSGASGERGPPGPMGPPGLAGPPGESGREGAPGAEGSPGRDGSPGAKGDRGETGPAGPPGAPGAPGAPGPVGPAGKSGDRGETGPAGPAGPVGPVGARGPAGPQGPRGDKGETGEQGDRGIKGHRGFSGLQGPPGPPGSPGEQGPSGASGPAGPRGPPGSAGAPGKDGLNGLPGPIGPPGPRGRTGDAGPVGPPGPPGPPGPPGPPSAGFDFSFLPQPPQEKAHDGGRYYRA
T1 sequence (P08123 80-1119 limits assumed): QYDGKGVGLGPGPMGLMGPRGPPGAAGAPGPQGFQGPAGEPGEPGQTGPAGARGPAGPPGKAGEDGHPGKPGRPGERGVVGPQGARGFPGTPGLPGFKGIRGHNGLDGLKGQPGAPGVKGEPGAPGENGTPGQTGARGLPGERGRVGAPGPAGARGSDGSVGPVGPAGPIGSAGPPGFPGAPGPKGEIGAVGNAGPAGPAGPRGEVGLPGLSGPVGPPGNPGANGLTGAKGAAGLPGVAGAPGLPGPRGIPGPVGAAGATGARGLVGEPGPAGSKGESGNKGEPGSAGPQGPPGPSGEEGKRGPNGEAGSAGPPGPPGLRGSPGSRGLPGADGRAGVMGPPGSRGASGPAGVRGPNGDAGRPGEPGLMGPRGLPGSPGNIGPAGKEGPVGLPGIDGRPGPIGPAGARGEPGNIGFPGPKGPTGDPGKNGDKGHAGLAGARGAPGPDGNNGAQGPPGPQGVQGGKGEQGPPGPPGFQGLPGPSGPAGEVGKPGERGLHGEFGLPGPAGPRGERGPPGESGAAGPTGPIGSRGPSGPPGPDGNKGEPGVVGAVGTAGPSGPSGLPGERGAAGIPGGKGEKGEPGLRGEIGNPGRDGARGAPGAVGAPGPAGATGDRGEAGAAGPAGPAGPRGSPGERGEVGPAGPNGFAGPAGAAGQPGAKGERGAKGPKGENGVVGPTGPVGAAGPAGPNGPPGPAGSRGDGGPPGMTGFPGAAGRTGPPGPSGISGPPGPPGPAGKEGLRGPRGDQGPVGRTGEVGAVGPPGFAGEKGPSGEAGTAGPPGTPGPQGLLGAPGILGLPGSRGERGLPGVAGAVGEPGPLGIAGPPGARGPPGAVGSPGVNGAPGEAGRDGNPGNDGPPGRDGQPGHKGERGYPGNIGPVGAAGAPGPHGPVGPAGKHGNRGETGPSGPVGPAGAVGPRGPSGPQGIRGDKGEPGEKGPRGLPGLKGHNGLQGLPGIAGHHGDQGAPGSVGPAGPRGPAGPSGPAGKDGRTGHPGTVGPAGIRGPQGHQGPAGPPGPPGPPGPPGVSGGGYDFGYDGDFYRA
T2 sequence (P02454 152-1207 limits assumed): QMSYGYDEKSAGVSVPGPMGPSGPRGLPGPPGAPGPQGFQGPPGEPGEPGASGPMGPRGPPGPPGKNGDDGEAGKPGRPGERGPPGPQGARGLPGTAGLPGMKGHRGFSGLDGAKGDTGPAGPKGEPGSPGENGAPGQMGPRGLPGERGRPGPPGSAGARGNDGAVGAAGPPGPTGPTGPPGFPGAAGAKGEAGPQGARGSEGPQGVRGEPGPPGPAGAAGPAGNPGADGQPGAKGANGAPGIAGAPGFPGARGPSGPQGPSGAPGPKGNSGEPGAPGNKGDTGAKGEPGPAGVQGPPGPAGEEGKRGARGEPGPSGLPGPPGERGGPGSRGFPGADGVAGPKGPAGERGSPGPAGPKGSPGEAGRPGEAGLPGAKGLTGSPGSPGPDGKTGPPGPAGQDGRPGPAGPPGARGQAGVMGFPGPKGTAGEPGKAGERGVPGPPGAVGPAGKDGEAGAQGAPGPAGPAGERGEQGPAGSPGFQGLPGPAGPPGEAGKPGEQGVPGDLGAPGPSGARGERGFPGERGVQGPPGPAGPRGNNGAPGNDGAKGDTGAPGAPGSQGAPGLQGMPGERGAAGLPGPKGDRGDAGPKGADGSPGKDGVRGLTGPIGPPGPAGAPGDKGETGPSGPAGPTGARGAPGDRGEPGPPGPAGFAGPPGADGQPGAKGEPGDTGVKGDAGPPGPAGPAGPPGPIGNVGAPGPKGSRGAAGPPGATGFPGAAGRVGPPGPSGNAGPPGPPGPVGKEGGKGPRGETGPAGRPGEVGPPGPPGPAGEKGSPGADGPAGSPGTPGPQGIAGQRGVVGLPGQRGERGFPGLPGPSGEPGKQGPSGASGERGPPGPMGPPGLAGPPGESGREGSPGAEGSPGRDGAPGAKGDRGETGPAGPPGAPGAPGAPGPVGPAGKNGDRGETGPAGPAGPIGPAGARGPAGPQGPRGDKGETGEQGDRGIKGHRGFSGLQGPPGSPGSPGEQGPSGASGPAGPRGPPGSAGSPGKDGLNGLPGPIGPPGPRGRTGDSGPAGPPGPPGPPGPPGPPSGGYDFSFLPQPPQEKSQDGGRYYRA
T2 sequence (P02466 86-1125 limits assumed): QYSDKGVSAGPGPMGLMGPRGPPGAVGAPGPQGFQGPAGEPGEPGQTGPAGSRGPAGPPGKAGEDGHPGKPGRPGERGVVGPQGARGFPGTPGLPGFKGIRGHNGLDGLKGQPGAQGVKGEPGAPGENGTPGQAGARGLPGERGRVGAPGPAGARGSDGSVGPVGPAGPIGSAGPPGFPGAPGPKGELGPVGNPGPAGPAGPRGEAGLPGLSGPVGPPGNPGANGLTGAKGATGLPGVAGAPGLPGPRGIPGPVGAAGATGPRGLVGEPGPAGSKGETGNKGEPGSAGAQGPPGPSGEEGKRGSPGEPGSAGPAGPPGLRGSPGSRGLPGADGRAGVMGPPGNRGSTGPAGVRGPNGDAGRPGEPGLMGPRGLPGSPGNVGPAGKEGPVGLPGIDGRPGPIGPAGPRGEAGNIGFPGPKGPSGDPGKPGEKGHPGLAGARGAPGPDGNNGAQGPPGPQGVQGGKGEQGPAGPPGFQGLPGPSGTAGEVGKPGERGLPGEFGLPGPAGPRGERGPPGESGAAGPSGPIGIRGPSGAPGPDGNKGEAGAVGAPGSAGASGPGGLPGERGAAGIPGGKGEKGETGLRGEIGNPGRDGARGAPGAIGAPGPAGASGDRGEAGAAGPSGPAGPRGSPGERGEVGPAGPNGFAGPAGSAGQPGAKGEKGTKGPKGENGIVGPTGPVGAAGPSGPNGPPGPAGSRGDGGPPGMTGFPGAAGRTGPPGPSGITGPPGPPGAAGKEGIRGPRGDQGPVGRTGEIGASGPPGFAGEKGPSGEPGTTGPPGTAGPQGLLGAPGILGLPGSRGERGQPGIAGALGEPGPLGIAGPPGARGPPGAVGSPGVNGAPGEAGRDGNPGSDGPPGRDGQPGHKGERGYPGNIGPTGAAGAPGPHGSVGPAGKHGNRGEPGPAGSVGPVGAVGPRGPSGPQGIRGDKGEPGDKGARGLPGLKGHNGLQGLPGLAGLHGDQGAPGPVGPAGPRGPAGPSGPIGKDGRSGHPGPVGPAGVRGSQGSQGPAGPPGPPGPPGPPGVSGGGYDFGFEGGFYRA
T3 sequence (P02454 152-1207 limits assumed): as the sequence (P02454 152-1207 limits assumed) above
T3 sequence (P02466 86-1125 limits assumed): as the sequence (P02466 86-1125 limits assumed) above

Substance | Dried Human Collagen Binding [1] | % Collagen Binding, Dried Rat [2] | other results
2 (WGWCEWAQNNCWNY) [compound 2] | 14% | – | –
3 (PWWCHEMPSMCFGF) [compound 3] | 2% | – | –
13 (QWTCSGDEYTWHCNYE; disulfide 4-13 (inferred)) [compound 13] | 78-85% | – | –
36 (SWSCGGDHNAWKCQYS; disulfide 4-13 (inferred)) [compound 36] | 7% | – | –
37 (LWNCHGTDANWKCVLN; disulfide 4-13 (inferred)) [compound 37] | 7% | – | –
38 (GWSCHGDAADWPCQWS; disulfide 4-13 (inferred)) [compound 38] | 6% | – | –
39 (GWQCSGDASVWNCDWI; disulfide 4-13 (inferred)) [compound 39] | 6% | – | –
65 (KWECVHTKGEWYCETK; disulfide 4-13 (inferred)) [compound 65] | 7% | – | –
74 (QWHCTTRFPHHYCLYG) [compound 74] | 67-69% | – | –
112 (AKACSVHDEFGCLIS; disulfide 4-12 (inferred)) [compound 112] | 9% | – | –
113 (FSECVWVNAYQCEYF; disulfide 4-12 (inferred)) [compound 113] | 3% | – | –
130 (WWACQKGRHDWEKCRWL; disulfide 4-14 (inferred)) [compound 130] | 32% | – | –
137 (YHACYQAGCWAW; disulfide 4-9 (inferred)) [compound 137] | – | 7% | –
142 (QWTCSADEYTWHCNYE) [compound 142] | – | 6% | –
147 (QWTCSGDEYTAHCNYE) [compound 147] | 5% | – | –
159 (YHACYQAGCWIW) [compound 159] | 7% | – | –

Substance | Dried Human Collagen Binding [1] | % Collagen Binding, Dried Rat [2] | other results
163 (YHACYQAGCWIW) [compound 163] | – | 53% | –
165 (QWTCSGDEYTWHCNYE) [compound 165] | 2% | 4% | –
166 (QWTCSGDEYTWHCNYE) [compound 166] | 2% | 3% | –
167 (QWTCSGDEYTWHCNYE) [compound 167] | 4% | – | –
168 (QWTCSGDEYTWHCNYE) [compound 168] | 3% | 2% | –
169 (QWTCSGDEYTWHCNYE) [compound 169] | – | 4% | –
171 (QWTCSGDEYTWHCNYE) [compound 171] | – | 6% | –
173 (QWTCSGDEYTWHCNYE) [compound 173] | 5% | 4% | –
174 (QWTCSGDEYTWHCNYE) [compound 174] | 5% | – | –
175 (QWTCSGDEYTWHCNYE) [compound 175] | 2% | 2% | –
176 (QWTCSGDEYTWHCNYE) [compound 176] | 2% | 2% | –
190 (GQWTCSGDEYTWHCNYE) [compound 190] | – | – | % Binding Collagen I Rat ([2]; chelate conjugates): 5%
Compound ID 803: dual peptide, gadolinium tetramer; bb-DTPA tetramer diacid coupled to N-terminus of SEQ ID NO. 264 peptide ({bb‑DTPA gadolinium tetramer}-GQWHCTTSFPHHYCLYG; disulfide 5-14 (inferred); reading uncertain; also: Gd complex) [dual peptide, gadolinium tetramer; 264 peptide] | – | – | fraction of compound present at 0 minutes post infusion that remains at 10 minutes [3]: 54%; heart uptake relative to GdDTPA [4]: about 7 times
Glu-DTPA-Gd-G.Q.W.H.C.T.T.R.F.P.H.H.Y.C.L.Y.G-PEG-H (GQWHCTTRFPHHYCLYG; disulfide 5-14 (inferred); not fully specified (N-terminus, C-terminus); also: Gd complex of DTPA) [SEQ ID NO. 186] | – | – | MR signal of centrifuged collagen gel pellet versus supernatant [5]: the pellet for sample 4 was much brighter than the supernatant; T1 ([6]; in 5.0 μM rat collagen gel, 10 μM Compound ID 1022 or 27 μM GdDTPA, 37° C.): 2.370 s; T1 ([6]; in 7.5 μM human collagen gel, 10 μM Compound ID 1022, 37° C.): 2.100 s; T1 ([6]; in PBS pH 7.4, 10 μM Compound ID 1022 or 27 μM GdDTPA, 37° C.): 2.375 s
Q W T C S G D A Y T W H C N Y E (QWTCSGDAYTWHCNYE) [SEQ ID NO. 144] | – | – | Heart:Blood ([7]; 1 min post injection): 0.38; Heart:Blood ([7]; 5 min post injection): 1.08; Blood (% ID/g) ([7]; 1 min post injection): 1.8 ± 0.2 % ID/g; Heart (% ID/g) ([7]; 1 min post injection): 0.68 ± 0.01 % ID/g; Blood (% ID/g) ([7]; 5 min post injection): 0.46 ± 0.07 % ID/g; Heart (% ID/g) ([7]; 5 min post injection): 0.50 ± 0.16 % ID/g; Heart (% ID/g) ([3]; 0 min after infusion): 4.6 ± 1.1 % ID/g; Heart (% ID/g) ([3]; 10 min after infusion, non-recirculated buffer): 3.1 ± 1.6 % ID/g; fraction of compound present at 0 minutes post infusion that remains at 10 minutes [3]: 68%; Heart:Buffer ([4]; buffer 3.0 μM): 3.3 ± 0.8; Heart ([4]; buffer 3.0 μM): 9.8 ± 2.3 nmol/g; Heart:Buffer ([4]; buffer 30 μM): 4.0 ± 1.7; Heart ([4]; buffer 30 μM): 120 ± 50 nmol/g; heart uptake relative to GdDTPA [4]: about 10 times
Q W T C S G D E Y T w H C N Y E (QWTCSGDEYT[dW]HCNYE; disulfide 4-13 (inferred)) [SEQ ID NO. 173] | – | – | Heart:Buffer ([4]; buffer 3.0 μM): 0.37 ± 0.08; Heart ([4]; buffer 3.0 μM): 1.1 ± 0.2 nmol/g; specific heart uptake (in words) ([4]; heart concentrations compared with GdDTPA): no specific uptake
